Test: label from the status in PepcDB records

Which protein production does the source give for “PQPKIGILLANLGTPDNYDYWSMRRYLNEFLSDKRVIDYPAWKWQPLLQILILSKRPFSSGANYKLIWNHDKGESPLMTITKDQTAAIAAEIRSLYGNRVMVDFCMRYGNPSTESRVRAMVEAGCEKILFFPLYPHYAGATSATANDEFFRAMMKEKRQPAVRTVPEYYDNPLYIDALAQSVERAYAQLDHRPDVLVASYHGMPKRYLMAGD” here?
The protein production was “failed”.

For “PSHSLQAPEVRFSKEMECLQAMGFVNYNANLQALIATDGDTNAAIYKLKSSQGF”, which protein production is on record?
The protein production was “not failed”.

For “PTEFLYTSKIAAISWAATGGRQQRVYFQDLNGKIREAQRGGDNPWTGGSSQNVIGEAKLFSPLAAVTWKSAQGIQIRVYCVNKDNILSEFVYDGSKWITGQLGSVGVKVGSNSKLAALQWGGSESAPPNIRVYYQKSNGSGSSIHEYVWSGKWTAGASFGSTVPGTGIGATAIGPGRLRIYYQATDNKIREHCWDSNSWYVGGFSASASAGVSIAAISWGSTPNIRVYWQKGREELYEAAYGGSWNTPGQIKDASRPTPSLPDTFIAANSSGNIDISVFFQASGVSLQQWQWISGKGWSIGAVVPTGTPAGW”, which protein production is on record?
Its protein production is “not failed”.

Which protein production does the source give for “PTLYEKIQQANEEAVTRIIQSKPILVGFDKAINVMPDMTETTILHAGPPITYENMCGPMKGAVQGALVFEGLAKDLADADRVARSGAITFSPCHEHDAVGSMAGVTSPNMYVHIIKNETYGNTAFTNLSEQLAKVLRFGANDQSVVDRLIWMRDVLGPLLHDAMTFCPEGIDLRLMLSQALHMGDECHNRNVAGSTLLVQALTPYMVQTDFSREQLKEVFEFLGSSDYFSGPTWMGAAKCALDAGHNVENSTIVTTMCRNGVEFGIRVSGIGGNHWFTGPAQRVIGPMFAGYTQEDAGLDMGDSAITETYGVGGFAMAAAPAIVPLVGGTVAEALNYSKEMLEITTKENPNVTIPVLDFMGIPTGIDVLKVLETGMLPVINTAIAHKEPGIGMIGAGLTNPPANVFNEALKALVATIN” here?
The protein production was “not failed”.

For “PTPKTELVQKFRVQYLGMLPVDRPVGMDTLNSAIENLMTSSSKEDWPSVNMNVADATVTVISEKNEEEVLVECRVRFLSFMGVGKDVHTFAFIMDTGNQRFECHVFWCEPNAANVSEAVQAACSGPSSGIEGRGSSGSSGSSGSSGDAAVTPEERHLSKMQQNGYENPTYKFFEQMQN”, which protein production is on record?
Its protein production is “not failed”.

For “PVPGIRCRDAFSAASGIIDKMACVPELAVSEISAPRIVSSLAGDGHALFVANSMPARDMDLYAAPVAQKPLQVALNRGVSGIDGIISTAAGFSAGLGKPTTLLIGDISFLHDLNALCLLNHPWNPLIVIVLNNHGGSIFSFLPIASQTDRLDECFATPQNFSIESAARTFGIDYACPETNGDFTQLYAEALTTKKSLIIEIRSDREKNLLLHRSLKARLDPVFEKADC”, which protein production is on record?
The protein production was “failed”.

Which protein production does the source give for “QAIHNDKSLLSPFSELNTDNRTKREESGSTFKEQKGGEFSKLLKQSINELNNTQEQSDKALADMATGQIKDLHQAAIAIGKAETSMKLMLEVRNKAISAYKELLRTQI” here?
Its protein production is “failed”.

Which protein production does the source give for “QAQITGRPEWIWLALGTALMGLGTLYFLVKGMGVSDPDAKKFYAITTLVPAIAFTMYLSMLLGYGLTMVPFGGEQNPIYWARYADWLFTTPLLLLDLALLVDADQGTILALVGADGIMIGTGLVGALTKVYSYRFVWWAISTAAMLYILYVLFFGFTSKAESMRPEVASTFKVLRNVTVVLWSAYPVVWLIGSEGAGIVPLNIETLLFMVLDVSAKVGFGLILLRSRAIFGEAEAPEPSAGDGAAATSD” here?
Its protein production is “failed”.

With “QDKKEQFKQLFQIVEQSFGRPLSPYEIETLNQWIDVDHHDLSVIQAALDEALSQNKLSFKYIDRILLNWKKNNV” as the sequence, how does the protein production read?
The protein production was “not failed”.

For “QDVLRGTLNLYCSVTAAYSHLPQLLERFRQEHPFVEIALTTGDAANALAEIQQNRADIAIAALPDPFPATLHFAKIDDVPLSLIAPTMRCAVQQQISQTQIDWARVPFIIPDHGPGRRRADNWFKQMGISPNIYAQVSGQEAIASMVALG”, which protein production is on record?
The protein production was “failed”.

With “QESVEDSLATVKVVLIPVGQEIVIPFKVDTILKYLKDHFSHLLGIPHSVLQIRYSGKILKNNETLVQHGVKPQEIVQVEIFSTNPDLYPVRRIDGLTDVSQIITV” as the sequence, how does the protein production read?
The protein production was “not failed”.

With “QGEEMNRSQEVTRDEESTRSEEVTREEMAAAGLTVTVTHSNEKHDLHVTSQQGSSEPVVQDLAQVVEEVIGVPQSFQKLIFKGKSLKEMETPLSALGIQDGCRVMLIGKKNSPQEEV” as the sequence, how does the protein production read?
The protein production was “failed”.

For “QGHWFAIHSGTLGIMVNVDALGGLPVPQSWADLLKPEYKGMVGYLDPSSAFVGYVSAVAINQAMGGSLDNFGPAIDYFQKLAKNSPIVPKQTAYARALSGELPILVDYDFNAYRARYKDKANVAFVIPKEGTIGVPYVMSMVAKAPHRANAEKVLDFVLSDAGQALWAKAYLRPVR”, which protein production is on record?
Its protein production is “failed”.

With “QHTEERELKKRLMNTARTVSEMTEVKEALARKKQTEAVRHAVEEIRMINEADYIVVMDMNHIRYTHPVSTSIGKKSEGADEEAAFAEHIYFSEAKGEIGTAVRAFYPVKDQDLNQIGVVLVGKTLPGIAD” as the sequence, how does the protein production read?
Its protein production is “failed”.

For “QIKIRKATKEDWEKIYQLYNSLSDEDLYLRFFHLYRITEEDAKKIASNEDHVTFLAEVDGKVVGEASLHKDGEFSLVVHRNYRTLGIGTLLVKTLIEEAKKSGLSTVKFYTLPENTPMIKIGRKLGFKMRFYEDEVYGEMRL”, which protein production is on record?
The protein production was “not failed”.

With “QKQYWVCNSSDASISYTYCDKMQYPISINVNPCIELKGSKGLLHIFYIPRRDLKQLYFNLYITVNTMNLPKRKEVICRGSDDDYSFCRALKGETVNTTISFSFKGIKFSKGKYKCVVEAISGSPEEMLFCLEFVILHQPNSN” as the sequence, how does the protein production read?
Its protein production is “failed”.

Which protein production does the source give for “QKVKTIFPHTAGNNKTLLSFAQGDVLTLLIPEEKDGWLYGEHDTTKARGWFPSSYTKLL” here?
The protein production was “not failed”.

For “QKYQALLANNVENTAKEALHQLAYTGREYNNIQDQIETISDLLGHSQSLYDYLREPSKANLTILENMWSSVARNQKLYKQIRFLDTSGTEKVRIKYDFKTSIAGPSLILRDKSAREYFKYAQSLDNEQISAWGIELERDKGELVYPLSPSLRILMPISVNDVRQGYLVLNVDIEYLSSLLNYSPVRDFHIELVKHKGFYIASPDESRLYGDIIPERSQFNFSNMYPDIWPRVVSEQAGYSYSGEHLIAFSSIKFVSNEPLHLIIDLSNEQLSKRATRDINDLIQES”, which protein production is on record?
The protein production was “not failed”.

For “QLLEPIRDFEARKCPVHGKTMELFCQTDQTCICYLCMFQEHKNHSTVTVEEAKAEKETE”, which protein production is on record?
The protein production was “not failed”.

With “QLSSVTDSKKKKTILDQIFVWEQNLEQFQMDLFRFRCYLASLQGGELPNPKRLLAFASRPTKVAMGRLGIFSVSSFHALVAARTGETGVRRRTQAM” as the sequence, how does the protein production read?
The protein production was “failed”.

Which protein production does the source give for “QNYWAVFDANKETLIVQTCSGLGLTAIDHLYPPHILPLDTDNETLGTTVLQALANSRTFVYDSPEDQDFFDTEKIRQRYEDWVAKLCGNLGYKTRRALFKNMMSVDIWLHNGCLKISPSRHVKLEAWNAIDADDVILSLDNSPEEIGAGLKLALSHC” here?
The protein production was “failed”.

For “QPTIVLDTDYNIIAANTAYQRQFGVAGKPHVGAKCYRVSHQFAVPCDQAGEHCPMRKAHDSRVPERMLHIHHTPRGPEHVDVELRPIIGQDGTVVAYVERLSSVAVASVQPQQKG”, which protein production is on record?
Its protein production is “failed”.

With “QQMETGDQRFGDLVFRQLAPNVWQHTSYLDMPGFGAVASNGLIVRDGGRVLVVDTAWTDDQTAQILNWIKQEINLPVALAVVTHAHQDKMGGMDALHAAGIATYANALSNQLAPQEGMVAAQHSLTFAANGWVEPATAPNFGPLKVFYPGPGHTSDNITVGIDGTDIAFGGCLIKDSKAKSLGNLGDADTEHYAASARAFGAAFPKASMIVMSHSAPDSRAAITHTARMADKLR” as the sequence, how does the protein production read?
Its protein production is “not failed”.

With “QQVTEPEETKETLQHLLDDTASGKMVQLTFVGESAEQPLITEMIRNFNVSVNILQGKISQTKDGAYGSLFIHIDGDEEEVQNVIRFINDKQVKAEVITNV” as the sequence, how does the protein production read?
Its protein production is “not failed”.

Which protein production does the source give for “QVPKKQTTSKILVRNIPFQANQREIRELFSTFGELKTVRLPKKMTGTGAHRGFGFVDFITKQDAKKAFNALCHSTHLYGRRLVLEWADSEVTVQ” here?
Its protein production is “not failed”.

With “QWDITLIGHEDDLSQLSHEKLSKLAACIEYSPYPMVEIDYFGNLTYLNTATKEKFPSIQKDSMAHPLLKDIIPQREDTPIYYLRTREVQIGDKFYEQHIHYPAESQFIRSYIFDITERKVIEQSIHYQAFYDPLTDLPNRFLFKQELGKVLSNVQNQSSVLGLVLLGFRELQSLNDLLG” as the sequence, how does the protein production read?
Its protein production is “failed”.

With “QYMSYDRNAFGNQVMGQFGNASGSVTSNKIFGFRSDILLQLLNMKISKDHQELNQNQVIQLVPTYLQQLYNEMNNGDPTMYKDLLNLHSNIVHPSGMYMNPLLYANQNPNAAGYNQGTGGVPPMAGGSVAHGPPAAPAP” as the sequence, how does the protein production read?
The protein production was “failed”.

Which protein production does the source give for “RAELRGVVRVAASEVVGAEVLPPLVARLRQACPNIVIELMLSNRFQDLLHREADIAVRMVAPQQEQLIARRLGRIELGLHATAAYLTRQGLPATLDDLASHALIGFDSATPLVRRALQAYPRFQREAFAMRTDSDLAQLSLIRAGA” here?
The protein production was “failed”.

Which protein production does the source give for “RALRRRGGDAAAKLAGLVLIAPAPDFTEALMWKGFSPEIRAEIETKGVWHRPSEYGEPYPITKALIEDGRNHLVLDGMIEVGCPVRILQGKQDEDVPWRHAFELAERLPTDDVVLTMIQDGDHRLSRPQDIARMLAAVEE” here?
Its protein production is “failed”.

Which protein production does the source give for “RAVAGWGARPSAAPARRRARSLGVPYIALEDGFLRSFGTGRHFPPLSLVVDRLGIYYDATRESELECLLASSRTLLDGIEDAVPEAMELVRERRLSKYNQGCFLATGVPADGRRRVLVVDQTEGDMSVTLGCAEAATFEAMLAAARAESPGALICVKTHPEVAAGDKSGYLSRVTDDADTVALRHDMNPLALLEQMDRVYVVSSQMGFEALMLDKPVTCFGMPWYAGWGVTDDRQRCERRGRARSVEELFAGAYFHYTRYLDPVLH” here?
The protein production was “failed”.

For “RDVAFTADGTTAYGTLHVPEHRAGQRLRAALLLPGSGPTDRDGNQPPASLPDTLAQLADTLGKDGVATLRFDKYGTGRTGLGTYQDRPEELDYPAFVRQARAGYESLRDQPETDPHALLVVGHSEGAMTGLLLGGTVSPRPAGLALLQPQAIRMLDLVALQLRAQIAEATRQGQFTPEQQRTVNAAVDAAVTALRERRPVDTADLPSPIARLFEAFQGPNARFVRSDDAVYPPDTAFALRPGTKVLLTCGTHDVQVPCDTTNVLTTALRHAHAHGPGRVVLPGVDHLMHDTDHPATLTPPVLDSL”, which protein production is on record?
The protein production was “failed”.

With “REIADNTYIVLGTMTLNDFNEYFETDLESDNVDTIAGFYLTGVGTIPSQEEKEHFEVESNGKHLELINDKVKDGRVTKLKILVSE” as the sequence, how does the protein production read?
The protein production was “not failed”.

With “RETYPDAVKICNICHSLLIQGQSCETCGIRMHLPCVAKYFQSNAEPRCPHCNDYWPHEIPK” as the sequence, how does the protein production read?
Its protein production is “not failed”.

For “RFLEDMTIGERREVGTFTFTADAIKTFAAQFDPQPFHLDEEAGKNSLFGGLAASGWHVAAVCMKLMVADAQRESAEAAKRGELVATGGPSPGFRELRWLKPVLAGDTITYYKQVESLRPSDSRPQWGIMQARNTGINQRGEVVFSFLATAFVPRRPNA”, which protein production is on record?
The protein production was “failed”.

For “RFNPFIHQQDVYVQIDRDGRHLSPGGTEYTLDGYNASGKKEEVTFFAGKELRKNAYLKVKAKGKYVETWEEVKFEDMPDSVQSKLK”, which protein production is on record?
The protein production was “not failed”.

Which protein production does the source give for “RHQPEINQTPGEAQALFVWRDNQDHRDDIERHYLKMLTSARREVIIANAYFFPGYRLLHAMRNAARRGVRVKLIVQGEPDIPIVKFGAHLLYHYLVKGGVQIYEYRRRPLHGKVALADDHWATVGSSNLDPLSLSLNLEANLIIHDRVFNQTLRDNLNGLIARDCQRIDKTMLPKRNWWRLGVSVMAFHFLRHFPAWVGWLP” here?
The protein production was “failed”.

With “RIGDGSPSHPPILERTLDDVPGPPMGILFPEVRTTSVRLIWQPPAAPNGIILAYQITHRLNTTTANTATVEVLAPSARQYTATGLKPESVYLFRITAQTRKGWGEAAEALVVTTEKR” as the sequence, how does the protein production read?
The protein production was “not failed”.

— a protein production outcome set (Wang et al. 2014)
